Assay in all cases: cell-based or functional assay
The target in one test is IL-5 (human, UniProt P05113 20-134).
The target of test [1] is T1, IL-4Rα (human, UniProt P24394 26-232, limits assumed).
Test [2] deals with T1, IL-4Rα. This is another data set of the same source.

Sequence of IL-5 (P05113 20-134 limits assumed): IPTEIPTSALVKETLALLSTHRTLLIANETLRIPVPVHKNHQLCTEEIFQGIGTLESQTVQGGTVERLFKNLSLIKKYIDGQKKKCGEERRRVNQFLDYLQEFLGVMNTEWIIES

In the test with IL-5, hIgG (antibody) registered an EC50 (nM), neutralizing IL-5-induced TF-1 cell proliferation (control) of 0.108 nM.

B1: reslizumab (Tab made by the applicant) (antibody, V domains shown)
VH: EVQLVESGGGLVQPGGSLRLSCAVSGLSLTSNSVNWIRQAPGKGLEWVGLIWSNGDTDYNSAIKSRFTISRDTSKSTVYLQMNSLRAEDTAVYYCAREYYGYFDYWGQGTLVTVSS
VL: DIQMTQSPSSLSASVGDRVTITCLASEGISSYLAWYQQKPGKAPKLLIYGANSLQTGVPSRFSGSGSATDYTLTISSLQPEDFATYYCQQSYKFPNTFGQGTKVEVK
Consider B1, for which, in the test with IL-5, the “EC50 (nM), neutralizing IL-5-induced TF-1 cell proliferation” value was determined as 0.122 nM.

B2: dupilumab (Tab made by the applicant) (antibody, V domains shown)
VH: EVQLVESGGGLEQPGGSLRLSCAGSGFTFRDYAMTWVRQAPGKGLEWVSSISGSGGNTYYADSVKGRFTISRDNSKNTLYLQMNSLRAEDTAVYYCAKDRLSITIRPRYYGLDVWGQGTTVTVSS
VL: DIVMTQSPLSLPVTPGEPASISCRSSQSLLYSIGYNYLDWYLQKSGQSPQLLIYLGSNRASGVPDRFSGSGSGTDFTLKISRVEAEDVGFYYCMQALQTPYTFGQGTKLEIKR
Consider B2, for which the “EC50 (nM), neutralizing IL-4-induced TF-1 proliferation” value with IL-4Rα [1] was found to be 0.13 nM. In addition, in the test with IL-4Rα [2], the “EC50(nM), neutralizing IL-13-induced TF-1 proliferation” value worked out at 0.178 nM.
